Measured values published in publication PMC8096239, “Nse5/6 is a negative regulator of the ATPase activity of the Smc5/6 complex”.

Experiments:
[1] = target: Smc5/6 holo-complex (S5-S6-N2/N1-N3-N4) (Saccharomyces cerevisiae, UniProt Q08204;Q12749;P38632;Q07913;Q05541;P43124 1-1093;1-1114;1-267;1-336;1-303;1-402); assay: EMSA; Hill slope 3.5; 200 nM DNA; two shifted species; 3 repeats; EMSA: 200 nM hairpin, 20 mM HEPES-NaOH pH 7.5, 150 mM NaCl, 0.5 mM TCEP, 30 min at 4 C; 0.8% TBE-agarose gel, 50 V, 3 h, 4 C; settings: protein: recombinant, tags: Smc5-FLAG, Smc6-AVI-HIS, HA-Nse2, HIS-TEV-Nse1, Nse3 untagged, Nse4-HALO-Myc, copies: 1;1;1;1;1;1, label: fluorescein on position 5 of thymine, 6-carbon spacer, 48 bp stem, 4 nt loop AATA, blunt end
Nse5/6 = target: T1, Nse5/6 (Saccharomyces cerevisiae, UniProt Q03718;P40026 1-556;1-464); assay: EMSA; more extensive concentration range; EMSA: 200 nM hairpin, 20 mM HEPES-NaOH pH 7.5, 150 mM NaCl, 0.5 mM TCEP, 30 min at 4 C; 0.8% TBE-agarose gel, 50 V, 3 h, 4 C; settings: protein: recombinant, tags: Nse5-C.tag (GAAEPEA), HIS-3C-Nse6, copies: 1;1, label: fluorescein on position 5 of thymine, 6-carbon spacer, 48 bp stem, 4 nt loop AATA, blunt end
T1 sequence 1: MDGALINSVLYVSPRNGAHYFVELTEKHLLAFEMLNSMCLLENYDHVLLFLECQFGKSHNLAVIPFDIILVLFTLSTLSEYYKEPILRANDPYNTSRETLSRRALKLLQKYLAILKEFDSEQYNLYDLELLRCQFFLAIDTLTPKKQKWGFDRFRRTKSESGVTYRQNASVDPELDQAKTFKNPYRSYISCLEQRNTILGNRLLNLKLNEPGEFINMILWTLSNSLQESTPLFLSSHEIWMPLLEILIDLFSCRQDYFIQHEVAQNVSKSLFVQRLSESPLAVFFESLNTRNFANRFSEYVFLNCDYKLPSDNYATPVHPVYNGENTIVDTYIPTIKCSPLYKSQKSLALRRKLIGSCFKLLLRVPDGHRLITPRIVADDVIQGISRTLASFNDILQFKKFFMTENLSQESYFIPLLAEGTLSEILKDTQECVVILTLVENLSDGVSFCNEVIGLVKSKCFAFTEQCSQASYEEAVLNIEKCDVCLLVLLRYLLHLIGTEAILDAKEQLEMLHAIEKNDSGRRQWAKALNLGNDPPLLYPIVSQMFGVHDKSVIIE
T1 sequence 2: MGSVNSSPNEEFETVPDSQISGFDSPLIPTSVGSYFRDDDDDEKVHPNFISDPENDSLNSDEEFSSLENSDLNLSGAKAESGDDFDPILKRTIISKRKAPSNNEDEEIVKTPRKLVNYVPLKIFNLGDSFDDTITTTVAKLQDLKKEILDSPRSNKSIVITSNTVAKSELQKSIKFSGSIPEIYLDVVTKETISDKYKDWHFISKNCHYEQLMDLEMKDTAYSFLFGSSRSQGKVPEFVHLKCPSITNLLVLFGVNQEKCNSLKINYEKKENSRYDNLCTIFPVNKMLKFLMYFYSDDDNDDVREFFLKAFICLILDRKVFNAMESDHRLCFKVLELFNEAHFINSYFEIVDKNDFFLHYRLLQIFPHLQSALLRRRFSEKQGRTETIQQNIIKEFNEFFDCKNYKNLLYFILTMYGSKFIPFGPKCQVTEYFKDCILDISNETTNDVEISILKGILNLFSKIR

[2] = target: Smc5/6 core complex (S5-S6-N2) (Saccharomyces cerevisiae, UniProt Q08204;Q12749;P38632 1-1093;1-1114;1-267); assay: EMSA; some aggregated material in wells at high concentration; EMSA: 200 nM hairpin, 20 mM HEPES-NaOH pH 7.5, 150 mM NaCl, 0.5 mM TCEP, 30 min at 4 C; 0.8% TBE-agarose gel, 50 V, 3 h, 4 C; settings: protein: recombinant, tags: Smc5-FLAG, Smc6-AVI-HIS, HA-Nse2, copies: 1;1;1, label: fluorescein on position 5 of thymine, 6-carbon spacer, 48 bp stem, 4 nt loop AATA, blunt end
Smc5/6 core complex (S5-S6-N2), sequence (Q08204 whole entry, chain 1 of 3): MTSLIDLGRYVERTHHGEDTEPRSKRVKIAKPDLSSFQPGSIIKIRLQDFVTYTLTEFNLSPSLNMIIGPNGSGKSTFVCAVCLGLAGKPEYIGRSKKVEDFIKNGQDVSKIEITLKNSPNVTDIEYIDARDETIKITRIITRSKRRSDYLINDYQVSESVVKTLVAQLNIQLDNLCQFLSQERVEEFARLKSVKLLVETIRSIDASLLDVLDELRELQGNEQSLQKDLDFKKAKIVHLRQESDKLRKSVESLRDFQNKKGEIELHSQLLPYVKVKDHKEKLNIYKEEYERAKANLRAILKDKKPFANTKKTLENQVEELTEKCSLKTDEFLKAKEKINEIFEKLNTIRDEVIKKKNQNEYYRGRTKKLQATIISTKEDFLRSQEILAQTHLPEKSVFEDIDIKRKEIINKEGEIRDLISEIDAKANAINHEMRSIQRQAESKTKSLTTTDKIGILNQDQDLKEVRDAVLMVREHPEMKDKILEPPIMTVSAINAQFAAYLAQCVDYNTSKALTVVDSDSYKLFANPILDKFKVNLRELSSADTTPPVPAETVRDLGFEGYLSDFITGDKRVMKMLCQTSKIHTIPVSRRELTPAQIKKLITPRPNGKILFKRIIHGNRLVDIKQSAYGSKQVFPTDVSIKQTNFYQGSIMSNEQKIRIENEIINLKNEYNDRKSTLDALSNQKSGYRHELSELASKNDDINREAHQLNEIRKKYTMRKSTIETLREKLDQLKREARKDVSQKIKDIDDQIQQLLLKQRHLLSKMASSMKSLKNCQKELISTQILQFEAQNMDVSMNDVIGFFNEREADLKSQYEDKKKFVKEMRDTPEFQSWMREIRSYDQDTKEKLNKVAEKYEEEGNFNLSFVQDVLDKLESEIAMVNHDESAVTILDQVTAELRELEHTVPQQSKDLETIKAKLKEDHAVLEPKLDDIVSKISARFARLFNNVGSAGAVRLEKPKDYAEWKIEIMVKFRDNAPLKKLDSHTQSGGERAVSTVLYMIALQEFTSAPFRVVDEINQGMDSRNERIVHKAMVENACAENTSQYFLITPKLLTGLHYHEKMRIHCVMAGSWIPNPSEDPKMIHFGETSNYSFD
Smc5/6 core complex (S5-S6-N2), sequence (Q12749 whole entry, chain 2 of 3): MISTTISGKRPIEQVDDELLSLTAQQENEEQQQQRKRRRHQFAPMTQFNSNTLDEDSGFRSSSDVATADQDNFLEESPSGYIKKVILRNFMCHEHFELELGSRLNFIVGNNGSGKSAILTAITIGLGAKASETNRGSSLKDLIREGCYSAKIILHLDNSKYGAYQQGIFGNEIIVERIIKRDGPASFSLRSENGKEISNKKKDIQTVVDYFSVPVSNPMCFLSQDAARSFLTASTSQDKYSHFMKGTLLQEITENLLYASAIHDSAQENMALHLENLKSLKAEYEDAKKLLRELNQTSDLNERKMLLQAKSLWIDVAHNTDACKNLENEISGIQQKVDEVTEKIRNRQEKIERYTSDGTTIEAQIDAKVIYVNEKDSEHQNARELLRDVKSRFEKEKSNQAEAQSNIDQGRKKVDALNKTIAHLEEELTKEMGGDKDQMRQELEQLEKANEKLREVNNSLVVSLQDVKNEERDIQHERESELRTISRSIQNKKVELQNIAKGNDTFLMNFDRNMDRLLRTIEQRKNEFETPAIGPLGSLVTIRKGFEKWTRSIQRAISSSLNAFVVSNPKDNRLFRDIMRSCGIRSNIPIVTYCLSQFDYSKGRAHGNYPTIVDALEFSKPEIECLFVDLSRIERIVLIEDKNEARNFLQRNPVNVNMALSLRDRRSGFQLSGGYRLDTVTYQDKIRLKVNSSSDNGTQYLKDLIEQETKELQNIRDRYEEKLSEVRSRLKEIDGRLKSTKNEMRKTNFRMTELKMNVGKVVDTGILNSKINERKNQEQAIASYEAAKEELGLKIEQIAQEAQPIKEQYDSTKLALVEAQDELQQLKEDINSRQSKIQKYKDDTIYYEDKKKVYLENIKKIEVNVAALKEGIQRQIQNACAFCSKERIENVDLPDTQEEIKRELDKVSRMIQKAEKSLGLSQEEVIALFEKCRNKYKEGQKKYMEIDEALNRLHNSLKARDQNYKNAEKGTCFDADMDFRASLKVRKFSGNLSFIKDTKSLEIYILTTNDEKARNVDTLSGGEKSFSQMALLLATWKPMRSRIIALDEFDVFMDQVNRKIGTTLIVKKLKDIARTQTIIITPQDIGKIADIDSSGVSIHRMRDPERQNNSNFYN
Smc5/6 core complex (S5-S6-N2), sequence (P38632 whole entry, chain 3 of 3): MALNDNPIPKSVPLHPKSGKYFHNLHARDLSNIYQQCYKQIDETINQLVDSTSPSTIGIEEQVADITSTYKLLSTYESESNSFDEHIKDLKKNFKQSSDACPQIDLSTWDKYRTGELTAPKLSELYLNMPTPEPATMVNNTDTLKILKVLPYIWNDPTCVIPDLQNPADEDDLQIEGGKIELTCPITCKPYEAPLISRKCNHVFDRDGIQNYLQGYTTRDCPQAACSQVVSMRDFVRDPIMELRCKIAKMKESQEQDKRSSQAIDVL

B1: oligonucleotide C, self-annealed dsDNA hairpin (structured_DNA)
DNA: ATCAGTACTTGTCAACACGAGCAGCCCGTATATTCTCCTACAGCACTAAATATAGTGCTGTAGGAGAATATACGGGCTGCTCGTGTTGACAAGTACTGAT
modifications: internal fluorescein-dT (iFT), between S3 and S4 (position 51, in loop)
For B1, the Kd [1] was ~220 nM, the binding result (Nse5/6) was “no binding” and the binding result [2] was “no binding”.
